Experimental data from US20080118504A1 (University of California, published 2008).
Numbering of substitutions follows the chain as printed.

Experiments:
[1] = molecular target: T1, TLR4 containing N-terminal HA-tag, stably transfected in CHO (EL1) cells (UniProt O00206 24-839, limits assumed); test: FACS with anti-His and anti-HA on TLR4 transfected EL-1 (CHO) cells, receptor numbers from a microbead standard curve
T1 construct: whole, on cells; also called membrane TLR4; TLR4 transfected EL-1 cells; not shown: N-terminal HA-tag
Protocol: (§1) LPS activation increased with increasing MD-2 levels on the cell surface. TLR4 transfected EL-1 cells (a CHO cell line stably transfected with NF-κB/CD25 reporter plasmid) were incubated with various amount of soluble MD-2 for 20 min. The amount of soluble MD-2 that bound to TLR4 transfected cells as well as the TLR4 expression level were assayed by FACS analysis using antibody to His-tag and HA-tag, respectively. The MD-2 and TLR4 receptor numbers were calculated by converting mean channel number (MCN) of fluorescence intensity using the standard curve generated with Simply Cellular Microbeads. The cells were also activated with 100 ng/ml LPS and NF-κB activation assayed by FACS analysis of surface CD25 expression.
(§2) Various concentrations of sMD-2, plotted on the x-axis, was added to CHO (EL1) cells stably transfected with TLR4. The amount of TLR4 and MD-2 on the cell surface was analyzed by FACS using anti-HA tag and anti-His tag antibody, respectively. The receptor numbers plotted on the left Y-axis were calculated from mean channel number (MCN) and the standard curves generated by simply cellular microbeads. The cells were also activated with 100 ng/ml of LPS.

[2] = molecular target: T1, TLR4 containing N-terminal HA-tag, …; test: FACS with anti-His and anti-HA on TLR4 transfected EL-1 (CHO) cells, receptor numbers from a microbead standard curve; 0.5 nM sMD-2, 20 min
Protocol: as §1, §2

[3] = molecular target: T1, TLR4 containing N-terminal HA-tag, …; test: FACS with anti-His tag of purified sMD-2 on TLR4 transfected EL1 (CHO) cells
Protocol: To determine sMD-2 mutants binding to TLR4, the purified proteins were added to TLR4 transfected EL1 cells, washed off excess protein after 15 min or overnight incubation, stained with anti-His tag antibody and analyzed by FACS. FIG. 10 illustrates data showing LPS activation of sMD-2. TLR4 transfected CHO cells harboring CD25 reporter plasmids were activated with 100 ng/ml LPS in the absence and presence of 5 ug/ml of sMD-2 and the NF-κB activation was measured by FACS analysis of CD25 surface expression (MCN) using anti-CD25-PE. […] None of mutants with mostly oligomers remained in association to TLR4 cells after 16 hr. The unglycosylated MD-2 bound normally to TLR4 cells after 15 min but the binding was reduced after 16 hr.

T1 sequence (O00206 24-839 limits assumed): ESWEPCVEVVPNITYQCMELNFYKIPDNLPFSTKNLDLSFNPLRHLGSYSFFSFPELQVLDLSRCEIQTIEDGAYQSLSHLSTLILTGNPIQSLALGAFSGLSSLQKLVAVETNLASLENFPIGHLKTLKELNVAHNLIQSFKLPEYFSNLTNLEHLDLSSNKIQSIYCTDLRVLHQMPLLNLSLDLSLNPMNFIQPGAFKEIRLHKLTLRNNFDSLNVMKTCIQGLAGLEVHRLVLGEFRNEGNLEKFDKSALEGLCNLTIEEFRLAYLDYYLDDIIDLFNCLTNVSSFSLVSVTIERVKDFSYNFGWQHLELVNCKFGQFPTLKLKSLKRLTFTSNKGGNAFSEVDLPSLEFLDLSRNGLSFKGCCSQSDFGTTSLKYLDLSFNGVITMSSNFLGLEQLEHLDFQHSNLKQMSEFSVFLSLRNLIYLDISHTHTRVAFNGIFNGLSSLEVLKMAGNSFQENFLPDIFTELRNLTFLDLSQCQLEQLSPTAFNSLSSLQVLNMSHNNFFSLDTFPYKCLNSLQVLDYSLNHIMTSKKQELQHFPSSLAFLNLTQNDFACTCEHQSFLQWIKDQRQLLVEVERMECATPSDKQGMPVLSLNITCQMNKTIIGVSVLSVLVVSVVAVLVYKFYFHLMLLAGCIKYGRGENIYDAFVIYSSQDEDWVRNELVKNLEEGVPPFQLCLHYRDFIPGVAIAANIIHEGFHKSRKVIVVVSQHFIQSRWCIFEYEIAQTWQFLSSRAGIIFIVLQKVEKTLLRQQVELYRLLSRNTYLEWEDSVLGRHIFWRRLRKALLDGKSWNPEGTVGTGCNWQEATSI

B1: soluble MD-2 wild type (human MD-2 with C-terminal His-tag, from insect cells) (other)
chain: EAQKQYWVCNSSDASISYTYCDKMQYPISINVNPCIELKGSKGLLHIFYIPRRDLKQLYFNLYITVNTMNLPKRKEVICRGSDDDYSFCRALKGETVNTTISFSFKGIKFSKGKYKCVVEAISGSPEEMLFCLEFVILHQPNSN
notes: Expressed with the gp64 signal peptide in place of its own; The purified protein is a mixture of monomer and disulfide-linked oligomers; also called sMD-2; sMD-2 WT; not shown: C-terminal V5/His tag of the vector (pBlueBac4.5/V5-His or pBac11)
[1]
  calculated ratio of MD-2 per TLR4 at maximal LPS activation: ~5 MD-2 per TLR4
[2]
  calculated ratio of surface MD-2 per TLR4: 0.5 MD-2 per TLR4

B2: soluble MD-2 alanine replacement mutant 127-131 (other)
chain: B1 chain with S111A, K112A, G113A, K114A, Y115A
notes: Expressed as a monomer; also called mutant SKGKY; not shown: C-terminal V5/His tag of the vector
[3]
  binding result: no binding (tested: 1 or 5 µg/ml)
